Tests used:
Hsp90-H210A (human) = Hsp90-H210A (human) (UniProt P07900); assay: ITC; 20 mM Tris pH 7.5, 5 mM NaCl, 1 mM EDTA, 30 °C; Hsp90 listed as protein, hAha1 as ligand; at least 3 experiments
[1] = target: purified Hsp90-H210A (human) (UniProt P07900); assay: ITC; Supplementary Table 2, obtained separately: 20 mM Tris pH 7.5, 5 mM NaCl, 1 mM EDTA, 30 °C

Kd (Hsp90-H210A (human)) | stoichiometry N (Hsp90-H210A (human)) | fold increase of Kd against wild-type Hsp90 [1] | Substance
14.6 µM | 0.37 | – | Human Aha1 (wild-type, full-length) (from UniProt O95433 1-338) (natural protein)
– | – | 2 fold | purified full-length Aha1 (from UniProt O95433 1-338) (natural protein)
